Patent publication US20240100133A1, “ENZYMATICALLY INACTIVE GRANZYME A AND USES THEREFORE” (Saint Louis University, priority 2022, published 2024)
Like-named read-outs stand apart in the source and are kept apart here.

Assays:
[1] = tested on: Connaught BCG within primary CD14+ human monocytes; type: cell-based; settings: for inhibition of intracellular mycobacterial replication (MGIA): 72 h
[2] = tested on: LAMP1 (phagolysosome fusion); assay: Confocal microscopy colocalization of BCG-GFP and LAMP1; type: cell-based, human; settings: compared with untreated controls
Description: Confocal microscopy and Stimulation Emission Depletion (STED) experiments. For confocal and STED microscopy experiments, cells were incubated on coverslips pre-treated with Cell-Tak (Corning #354240). At the time of fixation, cells were washed twice with 1×RT PBS, and then fixed in 4% paraformaldehyde for 15 min at 37° C. Slides were washed thrice for 5 min at RT with 1×PBS, and then blocked with 5% donkey serum (Cat. #017-000-121, Jackson ImmunoResearch, West Grove, PA) with 0.25% Tween-20 (Cat. #P9416, Sigma, St. Louis, MO) and True Stain Fc blocker (added only during blocking step) (Cat. #426101, Biolegend, San Diego, CA). Cells were then incubated overnight at 4° C. with primary antibody anti-GzmA (Cat. #MAB29051, R&D, Minneapolis, MN) at 12.5 μg/mL in blocking buffer, anti-PDIA1 (Cat. #MAB4236, R&D, Minneapolis, MN) at 12.5 μg/mL in blocking buffer, anti-LAMP1 at 12.5 ug/ml (Cat. #MAB4800, R&D, Minneapolis, MN), or anti-ATPSH (Cat. #ab110275, Abcam, Cambridge, UK) at 5 μg/mL in blocking buffer. To remove unbound antibody, cells were washed four times with 1×PBS at RT, and then incubated in the dark for 2 h with secondary antibody conjugated with Alexa Fluor 594 (Cat. #715-545-150, Jackson Immunoresearch, West Grove, PA) at 1:100 or Atto 647N (Cat. #ASR3248, Abcepta, San Diego, Ca) at 1:100. […]

TLR4 = TLR4 (Homo sapiens, UniProt O00206); assay: Immunoprecipitation with anti-GzmA, probed for TLR4; settings: human monocyte lysates, infected and uninfected cells
[3] = tested on: Mtb H37Rv within primary CD14+ human monocytes; type: cell-based, Mycobacterium tuberculosis; settings: 200 nM GzmA, Mtb MOI 1, human monocytes
[4] = BLT esterase assay for GzmA enzyme activity; type: biochemical; settings: 120 pM protein; substrate BLT
Description: BLT esterase protocol for measuring GzmA enzyme activity. BLT esterase assays and calculation of specific activity were adapted from (Rasi et al., 2021; Rasi et al., 2022). Substrate Z-L-Lys-SBz1 hydrochloride (Sigma #C3647-25MG) was added to 96 well plates with a serial dilution between 19.5-2,500 μM. Assay buffer consisted of 50 mM Tris, 154 mM NaCl, pH 7.5 in presence of […] (5,5-dithio-bis-(2-nitrobenzoic acid) (DTNB) chromophore. 120 pM of protein was added to each well and substrate hydrolysis was quantified by measuring the absorbance at 405 nm.

CD14 = biological target: T1, CD14 (Homo sapiens, UniProt P08571); assay: Immunoprecipitation with anti-GzmA, probed for CD14; settings: human monocyte lysates, infected and uninfected cells
T1 sequence (P08571 20-345): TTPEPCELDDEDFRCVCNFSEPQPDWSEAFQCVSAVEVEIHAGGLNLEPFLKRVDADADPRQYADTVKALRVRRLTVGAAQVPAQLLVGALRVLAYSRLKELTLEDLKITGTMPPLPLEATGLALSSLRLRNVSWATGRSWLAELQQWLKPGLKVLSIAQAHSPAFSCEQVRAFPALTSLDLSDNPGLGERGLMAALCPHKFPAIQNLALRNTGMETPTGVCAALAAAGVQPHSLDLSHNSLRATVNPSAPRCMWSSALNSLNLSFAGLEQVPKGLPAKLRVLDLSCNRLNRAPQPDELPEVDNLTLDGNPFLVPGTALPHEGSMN

mycobacteria BCG-GFP = type: binding
[5] = tested on: mycobacteria within iMac-WT mouse cells; type: cell-based; settings: human GzmA on mouse iMac-WT cells

Sequence of TLR4 (O00206 24-839): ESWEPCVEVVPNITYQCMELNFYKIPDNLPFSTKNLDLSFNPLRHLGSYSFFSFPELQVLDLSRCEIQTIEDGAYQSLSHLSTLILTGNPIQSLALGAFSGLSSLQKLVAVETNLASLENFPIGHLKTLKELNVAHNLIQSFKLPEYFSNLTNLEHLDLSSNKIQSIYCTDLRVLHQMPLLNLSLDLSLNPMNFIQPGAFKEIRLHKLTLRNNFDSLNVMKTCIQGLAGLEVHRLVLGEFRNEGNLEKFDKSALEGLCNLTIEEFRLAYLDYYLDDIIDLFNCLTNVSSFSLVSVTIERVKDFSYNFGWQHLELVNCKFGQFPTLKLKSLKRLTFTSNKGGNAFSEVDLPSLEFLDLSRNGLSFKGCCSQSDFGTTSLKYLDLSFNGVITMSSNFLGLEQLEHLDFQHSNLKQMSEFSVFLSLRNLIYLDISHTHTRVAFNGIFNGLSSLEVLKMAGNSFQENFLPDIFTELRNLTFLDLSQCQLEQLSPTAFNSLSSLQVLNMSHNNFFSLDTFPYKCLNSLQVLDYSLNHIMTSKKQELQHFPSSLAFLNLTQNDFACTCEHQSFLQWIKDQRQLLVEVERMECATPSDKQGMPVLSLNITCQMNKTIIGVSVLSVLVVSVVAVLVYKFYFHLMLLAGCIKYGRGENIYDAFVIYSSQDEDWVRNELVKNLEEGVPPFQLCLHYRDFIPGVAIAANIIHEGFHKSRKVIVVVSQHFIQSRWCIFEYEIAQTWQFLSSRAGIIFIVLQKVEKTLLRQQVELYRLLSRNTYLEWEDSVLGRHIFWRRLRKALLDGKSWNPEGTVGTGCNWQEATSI

B1: GzmA-C93S: Granzyme A variant with cysteine 93 substituted with serine; forms only monomers, retains enzymatic activity (protein)
chain: IIGGNEVTPHSRPYMVLLSLDRKTICAGALIAKDWVLTAAHCNLNKRSQVILGAHSITREEPTKQIMLVKKEFPYPSYDPATREGDLKLLQLMEKAKINKYVTILHLPKKGDDVKPGTMCQVAGWGRTHNSASWSDTLREVNITIIDRKVCNDRNHYNFNPVIGMNMVCAGSLRGGRDSCNGDSGSPLLCEGVFRGVTSFGLENKCGDPRGPGVYILLSKKHLNWIIMTIKGAV
modifications: left off: small tags and cut ends
effect of monomeric GzmA on protective effects of GzmA-WT (mixing experiment) [1]: partially inhibit the protective effects of GzmA-WT
intracellular replication of pre-opsonized mycobacteria (excess protein removed) [1]: cannot
inhibition of intracellular mycobacterial replication (MGIA) [1]: loses its inhibitory activity
colocalization between LAMP1 and BCG-GFP [2]: fails to direct mycobacteria into the phagolysosome
binding to TLR4 (immunoprecipitation) (TLR4): does not
inhibition of intracellular Mtb (MGIA) [3]: did not
enzymatic (esterase) activity, cleavage of BLT [4]: cleaved similar amounts of BLT as GzmA-WT
binding to CD14 (immunoprecipitation) (CD14): does not
binding to mycobacteria (mycobacteria BCG-GFP): able to bind mycobacteria
inhibition of mycobacterial growth in iMac-WT cells [5]: did not

B2: GzmA-S195A (protein)
chain: IIGGNEVTPHSRPYMVLLSLDRKTICAGALIAKDWVLTAAHCNLNKRSQVILGAHSITREEPTKQIMLVKKEFPYPCYDPATREGDLKLLQLMEKAKINKYVTILHLPKKGDDVKPGTMCQVAGWGRTHNSASWSDTLREVNITIIDRKVCNDRNHYNFNPVIGMNMVCAGSLRGGRDSCNGDAGSPLLCEGVFRGVTSFGLENKCGDPRGPGVYILLSKKHLNWIIMTIKGAV
modifications: left off: small tags and cut ends
GzmA inhibitory activity after CD14 neutralization (MGIA) [1]: lost their inhibitory activity
GzmA inhibitory activity after TLR2 neutralization (MGIA) [1]: does not reverse
inhibition of intracellular mycobacterial replication (MGIA) [1]: inhibits the intracellular replication of mycobacteria
inhibition of intracellular Mtb (MGIA) [3]: inhibited Mtb
inhibition of intracellular Mtb (MGIA) ([3]; listed as recombinant enzymatically inactive GzmA): very potent at protecting against Mtb intracellular infection
enzymatic (esterase) activity, cleavage of BLT [4]: loses its enzymatic activity
binding to mycobacteria (mycobacteria BCG-GFP): bound mycobacteria
inhibition of mycobacterial growth in iMac-WT cells [5]: modestly inhibit mycobacterial growth
